The results in this text go back to patent publication US10005846.

As usually defined, the EC50 is the midpoint of the concentration-response curve.

Assay [1] addresses human transglutaminase type 2 (TG2) (human) (UniProt P21980).
The target in assay [2] is cynomolgus monkey TG2 (cynomolgus monkey).
The target of assay [3] is human transglutaminase type 2 (TG2) (human) (UniProt P21980). As to the kind of experiment: ELISA on immobilised human TG2; r2 0.9991; EC50 95% confidence range 0.3291 to 0.4396 [panel A]. A general note: In an ELISA, binding on a coated surface is turned into a signal by an enzyme label.
Sequence of human transglutaminase type 2 (TG2) (human) (P21980 whole entry): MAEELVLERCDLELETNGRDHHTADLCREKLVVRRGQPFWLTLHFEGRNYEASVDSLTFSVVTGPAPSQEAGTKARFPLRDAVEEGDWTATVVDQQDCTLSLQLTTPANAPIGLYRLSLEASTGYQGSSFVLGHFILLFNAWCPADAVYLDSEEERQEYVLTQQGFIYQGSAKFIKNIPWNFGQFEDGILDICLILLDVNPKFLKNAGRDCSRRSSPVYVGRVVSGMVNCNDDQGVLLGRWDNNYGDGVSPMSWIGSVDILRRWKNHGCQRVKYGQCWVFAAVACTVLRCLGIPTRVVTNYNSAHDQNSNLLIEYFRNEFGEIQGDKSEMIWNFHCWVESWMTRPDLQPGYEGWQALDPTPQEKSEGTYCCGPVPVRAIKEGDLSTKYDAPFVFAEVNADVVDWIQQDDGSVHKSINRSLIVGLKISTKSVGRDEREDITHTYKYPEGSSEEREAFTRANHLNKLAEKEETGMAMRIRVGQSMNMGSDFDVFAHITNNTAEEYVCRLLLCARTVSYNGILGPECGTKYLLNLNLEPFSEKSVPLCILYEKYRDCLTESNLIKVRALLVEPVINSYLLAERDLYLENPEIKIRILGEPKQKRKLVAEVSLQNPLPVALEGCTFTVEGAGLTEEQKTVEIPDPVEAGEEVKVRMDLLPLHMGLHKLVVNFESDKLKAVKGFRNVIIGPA
Assay [4] shares this target. Put plainly: ELISA on immobilised human TG2; r2 0.9588; EC50 95% confidence range 0.06801 to 0.2396 [panel A].
The target in assay [5] is cynomolgus monkey TG2 (cynomolgus monkey). As to the kind of experiment: ELISA on immobilised cynomolgus monkey TG2; r2 0.9994; EC50 95% confidence range 0.3762 to 0.4603 [panel A].
For assay [6] the target is unchanged. Put plainly: ELISA on immobilised cynomolgus monkey TG2; r2 0.9586; EC50 95% confidence range 0.09303 to 0.4223 [panel A].

Bounds are passed on as bounds.

Sequence of cynomolgus monkey TG2 (cynomolgus monkey) (chain, as listed by the source): as the sequence (P21980 whole entry) above, with E4D, Q157R, N177S, H413S, I421T, Y528H, V542I counted along it

On to CUB7402 commercial anti-TG2 antibody, for which, in assay [1], the IC50 of enzymatic inhibition, dansylated lysine incorporation into N,N-dimethylated casein [continued), panel F] was above 100 nM. In assay [2], this substance came in with an IC50 of enzymatic inhibition, dansylated lysine incorporation into N,N-dimethylated casein [panel B] above 100 nM. In addition, the EC50 in assay [3] was determined as 0.38 nM; in assay [4], 0.128 nM; in assay [5], 0.416 nM; in assay [6], 0.198 nM.
